These results are taken from PMC11147780, “Vaccination induces broadly neutralizing antibody precursors to HIV gp41” (Nature Immunology, 2024).

Test [1] concerns the target T1, 10E8-GT10.2 epitope scaffold (designed scaffold 10E8-GT10.2 with …, N-linked glycosylation sites added (positions not given)).
T1 chain: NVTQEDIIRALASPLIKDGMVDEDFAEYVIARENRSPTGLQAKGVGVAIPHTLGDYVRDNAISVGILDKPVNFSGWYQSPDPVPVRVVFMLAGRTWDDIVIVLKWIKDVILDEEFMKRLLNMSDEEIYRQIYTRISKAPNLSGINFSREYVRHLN
Nature of the test: SPR; values told in the text, methods or extended data without a main figure; instrument not told (Carterra LSA, ProteOn XPR36 with GLC chip or Biacore 4000 with CM5 chip). The note with it: both partners purified.

Test [2] addresses T1, 10E8-GT10.2 epitope scaffold.
Test [3] deals with T2, 10E8-B1 epitope scaffold (synthetic construct (resurfaced …)).
T2 chain: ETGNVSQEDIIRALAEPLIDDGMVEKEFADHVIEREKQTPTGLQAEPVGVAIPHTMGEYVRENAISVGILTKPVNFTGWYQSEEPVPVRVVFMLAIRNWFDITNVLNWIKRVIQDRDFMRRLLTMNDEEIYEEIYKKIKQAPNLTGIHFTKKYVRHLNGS

The target in test [4] is T3, 10E8-GT10.1 epitope scaffold (synthetic construct, circularly …, N-linked glycosylation sites added (positions not given)).
T3 chain: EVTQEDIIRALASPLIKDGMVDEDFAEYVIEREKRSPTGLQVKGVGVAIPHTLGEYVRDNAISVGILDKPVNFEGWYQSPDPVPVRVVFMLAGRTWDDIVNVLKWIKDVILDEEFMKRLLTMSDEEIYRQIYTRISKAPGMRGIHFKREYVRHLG
The test is described as follows: SPR; Carterra LSA, HC30M or CMDP chips; antibodies as ligands held by an amine-coupled capture antibody, scaffolds as analytes (monovalent Kd); 1x HBS-EP+ pH 7.4 with 1 mg/ml bovine serum albumin; Langmuir model; values of the main text figures. The note with it: both partners purified.

Another test concerns the target T4, 10E8-GT4 (synthetic construct (T117-based HIV-1 …)).
T4 construct: source: FreeStyle 293F, purified (IMAC, SEC)
T4 chain: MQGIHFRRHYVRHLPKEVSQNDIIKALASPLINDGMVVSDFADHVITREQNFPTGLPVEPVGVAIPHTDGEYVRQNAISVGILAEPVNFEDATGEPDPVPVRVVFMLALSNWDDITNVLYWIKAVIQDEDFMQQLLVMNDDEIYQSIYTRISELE
Nature of the test: SPR; ProteOn XPR36, GLC sensor chip; antibody as ligand, monomeric scaffold as analyte; monovalent KD. The settings on record: both partners purified.

A further test has as its target T5, T117v2 (designed scaffold T117v2 with HIV-1 …).
T5 construct: also called T117v2 scaffold; source: FreeStyle 293F, purified (IMAC, SEC)
T5 chain: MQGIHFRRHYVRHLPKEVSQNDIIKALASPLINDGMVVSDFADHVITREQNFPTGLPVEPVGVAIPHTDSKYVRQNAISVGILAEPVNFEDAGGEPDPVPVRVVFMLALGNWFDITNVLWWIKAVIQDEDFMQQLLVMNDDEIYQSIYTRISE
The test is described as above. The settings on record: both partners purified.

The target of test [5] is T6, 10E8-GT12 epitope scaffold (synthetic construct (HIV-1 MPER graft …, N-linked glycosylation sites added (positions not given))).
T6 chain: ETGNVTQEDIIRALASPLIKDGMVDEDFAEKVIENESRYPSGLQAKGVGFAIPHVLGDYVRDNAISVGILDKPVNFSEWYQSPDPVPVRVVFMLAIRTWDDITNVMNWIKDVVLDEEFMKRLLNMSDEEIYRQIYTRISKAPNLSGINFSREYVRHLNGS

The next test addresses T7, T117v2 epitope scaffold (designed scaffold T117v2 with HIV-1 …).
T7 chain: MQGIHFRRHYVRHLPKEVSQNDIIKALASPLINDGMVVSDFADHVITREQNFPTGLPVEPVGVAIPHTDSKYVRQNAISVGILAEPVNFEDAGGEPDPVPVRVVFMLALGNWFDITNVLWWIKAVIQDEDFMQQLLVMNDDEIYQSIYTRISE
Nature of the test: SPR; values told in the text, methods or extended data without a main figure; instrument not told (Carterra LSA, ProteOn XPR36 with GLC chip or Biacore 4000 with CM5 chip). The note with it: both partners purified.

For test [6], the target named is T2, 10E8-B1 epitope scaffold. The test is described as follows: SPR; Carterra LSA, HC30M or CMDP chips; antibodies as ligands held by an amine-coupled capture antibody, scaffolds as analytes (monovalent Kd); 1x HBS-EP+ pH 7.4 with 1 mg/ml bovine serum albumin; Langmuir model; values of the main text figures. The note with it: both partners purified.

Read-outs that look alike come from different tables or passages of the source.

B1: NHP W3-01 Fab (Fab, V domains shown)
VH: QVQLQESGPGLVKPSETLSLTCAVSGGSFSSDWWGWIRQPPGKGLEWIGTIYGSGGSNYLNPSLKSRVTLSVDTSKNQFSLRLSSVTAADTAVYYCARGSGRYNIWTGYYTPFDAFDFWGRGLRVTVSS
VL: SYELTQPPSMSVSPGQTARITCGGDNLGSKYVHWYQQKPAQAPVLVIYYDSDRPSGIPERFSGSKSGNTATLTISGVEAGDEADYYCQVWDSSSDHYIFGAGTRLTVL
notes: also called 10E8-GT10.2-induced macaque antibody with a YxIW motif from week 3
The molecule B1 came in with a Kd in [1] of 4.8 nM.

B2: NHP-10E8_MPER-GT10v55_W21-12 (antibody, V domains shown)
VH: EVQLVESGGGLVQPGGSLRLSCAASGFTFSSYGMHWVRQAPGKGLEWVAVIWYDGSKKYYADSVKDRFTISRDNSKNMLYLQMNNLKFEDTAVYYCARVAPDYDFWSGSYTYSGLDSWGQGVVVTVSS
VL: DIQMTQSPSSLSASVGDTVTITCRASQSISSWLDWYQQKPGKAPKLLIYKASNLQSGVPSRFSGSGSGTHFTLTISSLQPEDFATYYCLQYNSSPYSFGQGTKVEIK
With B2, the Kd in [2] was 0.842 nM; with 10E8-B1 epitope scaffold [3], 1010 nM.

B3: NHP-10E8_MPER-GT10v55_W21-04 (antibody, V domains shown)
VH: EVQLVESGGGLVQPGGSLRLSCVASGFTFSDYGFDWVRQAPGKGLEWVGFIRSKDYGGSTEYAASVKGRFTISRDDSKNTAYLQMTSLKAEDTAVYFCTRDLGFYNFWTGYYEVNRFDVWGAGVLVTVSS
VL: QPVLTQPTSLSASPGASARLTCTLRSGISVGSYRIFWYQQKPGSPPRYLLNYHTDSDNHQGSGVPSRFSGSKDASANAGILLISGLQSDDEADYYCMIWHNNACFFGGGTRLTV
Regarding B3, the figures for the Kd (in test [2]; in the test with 10E8-B1 epitope scaffold [3]) were 0.115 nM and 22900 nM, respectively.

B4: NHP-10E8_MPER-GT10v55_W26-06 (antibody, V domains shown)
VH: QVQLQESGPGLVKPSETLSLTCAVSGDSISSGYYYWSWIRQPPGKGLEWIGYITYSGSTSYNPSLKSQVTISRDTAKNQFSLKLSSVTAADTAVYYCARGGTYYNFWSDGSPQYNRFGFWGPGVPVTVSS
VL: DIVMTQTPLSLPVTPGEPASISCRSSQSLLHSEDGNTYLDWYLQKPGQSPQLLIYEVSNRASGVPDRFSGSGSDTDFTLKISRVEAEDVGVYYCMQGLEFPLTFGGGTKVELK
As to B4, the Kd was 1.45 nM in [2] and 6420 nM with 10E8-B1 epitope scaffold [3].

B5: NHP-10E8_MPER-GT10v55_W21-19 (antibody, V domains shown)
VH: QVQLQESGPGLLKPSDTLSLICAVSGGSISGGYGWGWIRQPPGKGLEWIGSIYSSNGNTYYNPSLKSRVTISTDTSKNQFSLKLNSVTAADTAVYYCGSGGLSYSFWSGYQSLHRLHVWGPGVLVTVSS
VL: DIVMTQTPLSLPVTPGEPASISCRSSQSLLDSEDGNTYLDWYLQKPGQSPQLLIYEVSKRASGVPDRFSGSGSDTDFTLKISRVEAEDVGVYYCMQGLEFPFTFGPGTKLDIK
With B5, the dissociation constant Kd in test [2] was determined as 0.579 nM; in the test with 10E8-B1 epitope scaffold [3] it was 415 nM.

B6: 10E8 unmutated common ancestor antibody (antibody, V domains shown)
VH: not shown
VL: SSELTQDPAVSVALGQTVRITCQGDSLRSYYASWYQQKPGQAPVLVIYGKNNRPSGIPDRFSGSSSGNTASLTITGAQAEDEADYYCNSRDSSGNHLVVFGGGTKLTVL
notes: also called 10E8 UCA; proposed 10E8 UCA; source: FreeStyle 293F cells or ExpiCHO (high-throughput), purified (protein A)
B6 returned a dissociation constant (Kd) in test [4] of around 600 nM.

B7: 10E8-iGL1 (antibody, V domains shown)
VH: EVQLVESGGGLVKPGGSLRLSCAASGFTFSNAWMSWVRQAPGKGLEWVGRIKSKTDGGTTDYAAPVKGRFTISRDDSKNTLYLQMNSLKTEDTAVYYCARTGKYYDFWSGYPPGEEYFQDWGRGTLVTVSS
VL: SSELTQDPAVSVALGQTVRITCQGDSLRSYYASWYQQKPGQAPVLVIYGKNNRPSGIPDRFSGSSSGNTASLTITGAQAEDEADYYCSSRDKSGSRLSVFGGGTKLTVL
notes: source: FreeStyle 293F or ExpiCHO, purified (protein A)
Consider B7, for which, in the test with 10E8-GT4, the affinity, expressed as Kd, was 250 nM; the off-rate (koff) is 25 s⁻¹; the on-rate (kon) worked out at 1e+08 M⁻¹ s⁻¹.

B8: 10E8-iGL2 (antibody, V domains shown)
VH: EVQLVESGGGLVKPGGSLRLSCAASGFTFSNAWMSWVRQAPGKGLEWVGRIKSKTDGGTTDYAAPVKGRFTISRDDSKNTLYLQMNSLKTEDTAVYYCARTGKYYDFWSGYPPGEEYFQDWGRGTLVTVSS
VL: SSELTQDPAVSVALGQTVRITCQGDSLRSYYASWYQQKPGQAPVLVIYGKNNRPSGIPDRFSGSSSGNTASLTITGAQAEDEADYYCNSRDSSGNHLWVFGGGTKLTVL
notes: as for B7
With B8, in the test with T117v2, binding was put at a Kd of 17000 nM, the koff is 0.11 s⁻¹ and the on-rate constant (kon) came out at 6600 M⁻¹ s⁻¹.

B9: NHP-10E8_MPER-GT10v55_W26-03 (antibody, V domains shown)
VH: QVQLQESGPGVVKPSETLSLTCAVSGGSISDNYWWTWIRQPPGKGLEWIGYIYGSNTSTNYNPSLKSRVTISKDTSKNQFSLKLSSVTAADTAVYYCARDREFYNFWSGYYGAYGLDSWGQGVVVTVSS
VL: QPVLTQPTSLSASPGASARLSCTLSSGINVGSYSIYWYQQKPGSPPRYLLYYDSDSNKHQGSGVPSRFSGSNDASANAGLLLISGLQSEDEADYYCAIWHSSTYYIFGGGTRLTV
As to B9, the values for the dissociation constant (Kd) (in test [2]; with 10E8-B1 epitope scaffold [3]) were 0.178 nM and 840 nM, respectively.

B10: NHP-10E8_MPER-GT10v55_W26-05 (antibody, V domains shown)
VH: EVQLVESGGGLVQPGGSLRLSCAASGFTFSNYWMNWVRQAPGKGLEWVGFIKNKADGGTAAYAESVKGRFTISRDDSKNTLYLQMNSLKTEDTAVYYCTREATFYNFWSGYYTPQYGLDSWGQGVVVTVSS
VL: QPVLTQPTSLSASPGASARLTCTLSSGISVGSYRIFWYQQKPGSPPRYLLNYHTDSDKHQGSGVPSRFSGSKDASANAGILLISGLQSEDEADYYCMIWHNNAHGLFGGGTRLTV
Consider B10, for which the Kd was found to be 263 nM in [2] and 9680 nM with 10E8-B1 epitope scaffold [3].

B11: MPER_HuGL-106 (MPER-102) (antibody, V domains shown)
VH: EVQLVESGGGLVQPGRSLRLSCTASGFTFGDYAMSWVRQAPGKGLEWVGFIRSKAYGGTTEYAASVKGRFTISRDDSKSIAYLQMNSLKTEDTAVYYCTRDKVGYDFWSGDYYYYGMDVWGQGTTVTVSS
VL: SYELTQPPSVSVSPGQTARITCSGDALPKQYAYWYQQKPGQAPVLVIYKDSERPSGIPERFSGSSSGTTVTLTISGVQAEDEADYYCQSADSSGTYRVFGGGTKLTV
In turn, B11 returned a dissociation constant Kd in test [5] of 1140 nM.

B12: mature 10E8 broadly neutralizing antibody (antibody, V domains shown)
VH: EVQLVESGGGLVKPGGSLRLSCSASGFDFDNAWMTWVRQPPGKGLEWVGRITGPGEGWSVDYAAPVEGRFTISRLNSINFLYLEMNNLRMEDSGLYFCARTGKYYDFWSGYPPGEEYFQDWGRGTLVTVSS
VL: SYELTQETGVSVALGRTVTITCRGDSLRSHYASWYQKKPGQAPILLFYGKNNRPSGVPDRFSGSASGNRASLTISGAQAEDDAEYYCSSRDKSGSRLSVFGGGTKLTVL
notes: also called 10E8 bnAb; source: FreeStyle 293F cells or ExpiCHO (high-throughput), purified (protein A)
As to B12, the dissociation constant (Kd) in the test with T117v2 epitope scaffold is 0.39 nM; with 10E8-B1 epitope scaffold [6], 0.08 nM.

B13: 10E8 (antibody, V domains shown)
VH: EVQLVESGGGLVKPGGSLRLSCSASGFDFDNAWMTWVRQPPGKGLEWVGRITGPGEGWSVDYAAPVEGRFTISRLNSINFLYLEMNNLRMEDSGLYFCARTGKYYDFWSGYPPGEEYFQDWGRGTLVTVSS
VL: SYELTQETGVSVALGRTVTITCRGDSLRSHYASWYQKKPGQAPILLFYGKNNRPSGVPDRFSGSASGNRASLTISGAQAEDDAEYYCSSRDKSGSRLSVFGGGTKLTVL
notes: also called mature 10E8; 10E8 bnAb; source: FreeStyle 293F or ExpiCHO, purified (protein A)
As for B13, the values for the dissociation constant Kd with T117v2 and with 10E8-GT4 were 0.94 nM and 9.5 nM, respectively.
